# Experimental data published in patent CN110028581A.
# Legend:
# [1] = biological target: 微囊藻毒素抗体IgG in ascites (腹水)
# [2] = biological target: 微囊藻毒素抗体Fab片段 (microcystin antibody Fab fragment)
# [3] = biological target: 微囊藻毒素抗体Fab片段 (microcystin antibody Fab fragment); experiment: ic-ELISA: free MC-LR (1000 ng/mL dilution) against coated MC-LR-OVA for the Fab
substance,measurement,setting,value
微囊藻毒素-LR (microcystin-LR) (peptide),抑制率 (inhibition rate),[1],91%
same,IC20,[2],0.15 ng/mL
same,IC50,[2],0.56 ng/mL
same,IC80,[2],2.1 ng/mL
same,抑制率 (inhibition rate),[3],99%
